Assay results as given in article PMC4641155 (Molecular Imaging and Biology, 2015).
Several values for one entry are separate records, joined by “and”; a condition that tells them apart may be missing. Identical values can stand only once. Like-named read-outs stand apart in the source and are kept apart here.

Tests used:
[1] = Projected human organ absorbed doses and effective dose (OLINDA/EXM); format: in vivo, human (extrapolated from mouse); details: OLINDA/EXM v1.1, adult male model, 2-h voiding, from mouse data
Excerpt: (§1) Volumes of interest (VOIs) were manually drawn on the μSPECT-CT images using PMOD v3.3 (PMOD Technologies, Switzerland) to delineate the regions with distinct SPECT time-activity pattern: heart, liver, kidney, and urinary bladder, as well as whole-body. The average organ activity per volume was obtained from the co-registered μSPECT images and the non-decay corrected time activity curves (TACs) were extracted for each target organ. In order to relate the scanner units (counts/pixel) to radioactivity concentration (kilobecquerel per cubic centimeter), a scanner calibration factor was estimated by scanning a syringe with a known concentration of Tc-99m. TACs for each organ, as well as the TACs representing the activity in the remainder of the body, were fitted by a single exponential decaying function, which was then integrated to obtain the total number of disintegrations (residence time) within these regions. In order to predict human dosimetry using animal data, interspecies extrapolation is necessary. Thus, the residence times (R) were scaled to human values according to the following formula [21]: R/gorganmouse⋅kgTBweightmouse⋅gorgan/kgTBweighthuman=Rhuman
(§2) The human organ and body weight values from the standard adult male phantom taken into account are implemented in the internal dosimetry software (OLINDA/EXM v1.1) and are assumed to be constant across individuals. The body weight and organ masses for the individual mice were obtained post-mortem. For the bladder model, the fraction leaving the body via the urinary excretion system (f) and the biological half-life of the excretion (t1/2) were estimated by fitting a first-order linear system to the sum of activity in the bladder and the activity that had been excreted (calculated as total injected activity minus total body activity): y=f1−expln2/t1/2t
Projected human absorbed doses to various organs and the effective doses (ED) were then computed using the aforementioned dosimetry software (weighting factors from International Commission on Radiological Protection 60), with the human residence times as input, using the standard adult male model and the dynamic voiding bladder model (2-h voiding interval).

[2] = Bladder model fit of urinary excretion; format: in vivo, CD1−/− nude female mice; details: first-order fit of bladder plus excreted activity
Excerpt: as §2

[3] = Human residence time estimates scaled from mouse μSPECT time-activity curves; format: in vivo, human (extrapolated from mouse); details: scaled from mouse μSPECT TACs, n = 3 non-purified, n = 6 purified
Excerpt: as §1, §2

[4] = Dynamic/static whole-body μSPECT-CT biodistribution in healthy mice; format: in vivo; details: female, CD1−/− nude, mouse, kidney, iv, 37 MBq, total radioactivity, 37 MBq i.v., 4 h p.i., mean ± SEM, n = 3 non-purified, n = 6 purified, read-out: renal activity (renal excretion)
[5] = In vivo tumor uptake by μSPECT-CT in COLO205 tumor-bearing mice; set-up: species or system nude mice; details: female, nude, mouse, bone marrow (lumbar vertebrae and sacrum), iv, 37 MBq, total radioactivity, lumbar vertebrae and sacrum, μSPECT 4 h p.i., 37 MBq i.v.
Description: Irinotecan was administered by intra-peritoneal (i.p.) injection (80 mg/kg) three times in 1 week every other day (n = 3).

COLO205 tumors [6] = test system: COLO205 tumors
COLO205 tumors [7] = experiment: Ex vivo histology of tumors: cleaved caspase-3 and TUNEL; format: in vivo, nude mice; details: irinotecan-treated tumors; three whole sections, ×400; n = 6; mean ± SEM
COLO205 cells = experiment: Muse Annexin V & Dead Cell and Caspase 3/7 assays in irinotecan-treated cells; format: cell-based, human
[8] = cited from earlier work
caspase-3/7 = details: cited from earlier work
Excerpt: Molecular imaging of cell death has gained interest in oncology for monitoring tumor response to cancer therapy. Radiolabeled annexin-V was the first cell death-specific probe to be evaluated clinically. The exposure of membrane aminophospholipids such as PS and PE in the extracellular milieu provides surrogate markers for detecting cell death. PE presents one of the most abundant targets in the membrane bilayer, only preceded by phosphatidylcholine. […] Other ...

CC(C)[C@@H]1NC(=O)[C@H](Cc2ccccc2)NC(=O)[C@@H]2NC(=O)[C@H](Cc3ccccc3)NC(=O)[C@@H]3CCCN3C(=O)CNC(=O)[C@H](Cc3ccccc3)NC(=O)[C@@H]3CNCCCC[C@@H](C(=O)O)NC(=O)[C@@H]4NC(=O)[C@H](CC(N)=O)NC(=O)CNC(=O)[C@H]([C@@H](O)C(=O)O)NC(=O)[C@H](CSC[C@@H](NC(=O)[C@H](CCC(N)=O)NC(=O)[C@H](CCCCNC(=O)c5ccc(NN)nc5)NC(=O)[C@@H](N)CS[C@H]4C)C(=O)N[C@@H](CS[C@H]2C)C(=O)N3)NC1=O [non-purified [^99mTc]duramycin] [metal not drawn]
Mean human absorbed dose, total body [1]: 2.52 × 10^−3 mGy/MBq | Mean human organ absorbed dose, LLI wall [1]: 3.01 × 10^−3 mGy/MBq | Mean human organ absorbed dose, ULI wall [1]: 3.10 × 10^−3 mGy/MBq | Mean human organ absorbed dose, adrenals [1]: 3.90 × 10^−3 mGy/MBq | Mean human organ absorbed dose, brain [1]: 1.54 × 10^−3 mGy/MBq | Mean human organ absorbed dose, breasts [1]: 1.51 × 10^−3 mGy/MBq | Mean human organ absorbed dose, gallbladder wall [1]: 5.38 × 10^−3 mGy/MBq | Mean human organ absorbed dose, heart wall [1]: 3.12 × 10^−3 mGy/MBq | Mean human organ absorbed dose, kidneys [1]: 8.45 × 10^−3 mGy/MBq | Mean human organ absorbed dose, liver [1]: 1.27 × 10^−2 ± 5.97 × 10^−3 mGy/MBq and 1.27 × 10 ^−2 mGy/MBq | Mean human organ absorbed dose, lungs [1]: 2.52 × 10^−3 mGy/MBq | Mean human organ absorbed dose, muscle [1]: 2.12 × 10^−3 mGy/MBq | Mean human organ absorbed dose, osteogenic cells [1]: 5.51 × 10^−3 mGy/MBq | Mean human organ absorbed dose, ovaries [1]: 3.15 × 10^−3 mGy/MBq | Mean human organ absorbed dose, pancreas [1]: 3.79 × 10^−3 mGy/MBq | Mean human organ absorbed dose, red marrow [1]: 2.16 × 10^−3 mGy/MBq | Mean human organ absorbed dose, skin [1]: 1.34 × 10^−3 mGy/MBq | Mean human organ absorbed dose, small intestine [1]: 3.01 × 10^−3 mGy/MBq | Mean human organ absorbed dose, spleen [1]: 2.48 × 10^−3 mGy/MBq | Mean human organ absorbed dose, stomach wall [1]: 2.63 × 10^−3 mGy/MBq | Mean human organ absorbed dose, testes [1]: 2.11 × 10^−3 mGy/MBq | Mean human organ absorbed dose, thymus [1]: 2.03 × 10^−3 mGy/MBq | Mean human organ absorbed dose, thyroid [1]: 1.87 × 10^−3 mGy/MBq | Mean human organ absorbed dose, urinary bladder wall [1]: 1.66 × 10^−2 ± 4.55 × 10^−3 mGy/MBq and 1.66 × 10 ^−2 mGy/MBq | Mean human organ absorbed dose, uterus [1]: 4.05 × 10^−3 mGy/MBq | f, mean fraction leaving the body via the urinary excretion system [2]: 0.519 | t 1/2, mean biological half-life of the excretion [2]: 2.950 h | Mean human residence time, heart contents [3]: 0.0244 h | Mean human residence time, kidneys [3]: 0.13 h | Mean human residence time, liver [3]: 1.02 h | Mean human residence time, remaining body [3]: 3.41 h | Mean human residence time, urinary bladder contents [3]: 0.369 h

CC(C)[C@@H]1NC(=O)[C@H](Cc2ccccc2)NC(=O)[C@@H]2NC(=O)[C@H](Cc3ccccc3)NC(=O)[C@@H]3CCCN3C(=O)CNC(=O)[C@H](Cc3ccccc3)NC(=O)[C@@H]3CNCCCC[C@@H](C(=O)O)NC(=O)[C@@H]4NC(=O)[C@H](CC(N)=O)NC(=O)CNC(=O)[C@H]([C@@H](O)C(=O)O)NC(=O)[C@H](CSC[C@@H](NC(=O)[C@H](CCC(N)=O)NC(=O)[C@H](CCCCNC(=O)c5ccc(NN)nc5)NC(=O)[C@@H](N)CS[C@H]4C)C(=O)N[C@@H](CS[C@H]2C)C(=O)N3)NC1=O [purified [^99mTc]duramycin, metal not drawn]
tissue uptake per volume at 4 h [4]: 6.82 ± 0.41 %ID/mL | SUV at 4 h ([5]; irinotecan-treated mice): 0.12 ± 0.02 SUV | SUV at 4 h ([5]; vehicle-treated mice): 0.11 ± 0.01 SUV

CCc1c2c(nc3ccc(OC(=O)N4CCC(N5CCCCC5)CC4)cc13)-c1cc3c(c(=O)n1C2)COC(=O)[C@]3(O)CC [irinotecan]
overall toxicity with respect to body weight loss (COLO205 tumors [6]; 80 mg/kg irinotecan, data not shown): No overall toxicity | BLI signal change after treatment (COLO205 tumors [6]; bioluminescence imaging after vs before treatment, irinotecan 80 mg/kg i.p.): 0.75 ± 0.28 | tumor growth inhibition (COLO205 tumors [6]; day 5, irinotecan 80 mg/kg i.p. three times in 1 week, vs vehicle): 34.4 ± 6.9% | number of CC3-positive cells (COLO205 tumors [7]): 9.5 ± 1.1 | number of TUNEL-positive cells (COLO205 tumors [7]): 10.5 ± 1.6 | level of cell necrosis (COLO205 cells; irinotecan 0.43, 4.3, 43 μM, 40 h, Muse assays): did not result in an increased level of cell necrosis | apoptosis levels (COLO205 cells; irinotecan treatment 40 h, annexin-V binding and effector caspase activation): increase in apoptosis levels

O=C1C(=O)N(Cc2cn(CC[18F])nn2)c2ccc(S(=O)(=O)N3CCCC3COc3ccc(F)cc3F)cc21 (stereo not drawn) [[^18F]ICMT11]
mean effective dose [8]: 0.025 mSv/MBq | binding affinity for caspase-3/7 (caspase-3/7): nanomolar

[^99mTc]HYNIC-annexin V: radiolabeled human recombinant annexin V, apoptosis imaging agent
mean effective dose ([8]; in vivo): 0.011 mSv/MBq
